{"source": "patent US20090118183A1", "about": "(AFFYMAX, published 2009)", "key": {"human EPO-R [1]": {"target": "T1, human EPO-R (human, UniProt P19235 25-508)", "T1 sequence (looked up)": "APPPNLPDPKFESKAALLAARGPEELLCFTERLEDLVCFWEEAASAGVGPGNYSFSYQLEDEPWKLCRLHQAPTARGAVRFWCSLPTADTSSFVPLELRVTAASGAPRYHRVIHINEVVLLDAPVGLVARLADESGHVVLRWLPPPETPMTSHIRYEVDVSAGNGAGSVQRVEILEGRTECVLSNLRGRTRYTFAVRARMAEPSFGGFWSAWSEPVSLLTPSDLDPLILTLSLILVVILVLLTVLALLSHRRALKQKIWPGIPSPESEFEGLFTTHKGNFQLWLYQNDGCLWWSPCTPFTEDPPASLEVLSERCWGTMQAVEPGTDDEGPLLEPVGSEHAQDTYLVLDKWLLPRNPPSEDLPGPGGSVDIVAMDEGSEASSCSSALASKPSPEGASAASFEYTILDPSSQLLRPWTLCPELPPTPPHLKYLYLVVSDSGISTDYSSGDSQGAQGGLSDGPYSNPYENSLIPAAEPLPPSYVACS", "test": "cell-based or functional assay"}, "[2]": {"target": "T2, chimeric receptor comprising the extra-cellular portion of the human EPO receptor to the intra-cellular … (human, UniProt P19235 25-250; Q99062 651-836, limits assumed)", "T2 sequence (looked up)": "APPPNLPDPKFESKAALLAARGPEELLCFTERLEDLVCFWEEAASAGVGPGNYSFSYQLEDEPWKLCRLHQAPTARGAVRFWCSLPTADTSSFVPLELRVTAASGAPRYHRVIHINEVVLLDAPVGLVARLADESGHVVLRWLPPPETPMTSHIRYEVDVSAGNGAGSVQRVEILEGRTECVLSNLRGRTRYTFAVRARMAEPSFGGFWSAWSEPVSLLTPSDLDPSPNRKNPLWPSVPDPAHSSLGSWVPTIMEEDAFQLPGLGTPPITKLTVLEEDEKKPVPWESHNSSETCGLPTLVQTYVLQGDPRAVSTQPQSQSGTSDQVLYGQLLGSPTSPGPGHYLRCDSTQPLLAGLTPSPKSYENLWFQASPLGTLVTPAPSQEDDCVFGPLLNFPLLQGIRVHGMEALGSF", "test": "cell-based or functional assay"}, "[3]": {"target": "T3, Recombinant Human EPO R/Fc Chimera (human, UniProt P19235 25-250)", "T3 construct": "extracellular domain; Bought reagent (R&D Systems, catalog 963-ER); also called recombinant EPOr extracellular domain fused to the Fc portion of human IgG1; recombinant erythropoietin receptor; not shown: Fc portion of human IgG1", "T3 sequence (looked up)": "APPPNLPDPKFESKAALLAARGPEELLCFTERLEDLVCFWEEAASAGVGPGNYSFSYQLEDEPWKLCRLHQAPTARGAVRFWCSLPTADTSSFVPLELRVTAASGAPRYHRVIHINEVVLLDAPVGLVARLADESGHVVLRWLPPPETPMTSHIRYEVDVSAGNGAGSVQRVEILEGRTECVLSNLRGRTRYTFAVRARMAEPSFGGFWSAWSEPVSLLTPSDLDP", "test": "radioligand competition: displacement of 125I-EPO from recombinant human EPO R/Fc, Protein-G Sepharose pull-down"}, "human EPO-R [4]": {"target": "T1, human EPO-R", "test": "cell-based or functional assay", "remark": "listed apart in the source"}, "[5]": {"target": "T2, chimeric receptor comprising the …", "test": "cell-based or functional assay", "remark": "listed apart in the source"}, "[6]": {"target": "recombinant EPO-R (produced in Chinese Hamster Ovary cells as a fusion protein to a portion of the human … (human, UniProt P05187 489-506))", "test": "competitive binding; column headed only 'IC50 (pM)'; taken as the AQ bead proximity assay against the biotinylated peptide tracer (SEQ ID NO: 4) per paragraph 299"}}, "note": "Read-outs that look alike come from different tables or passages of the source. Bridge positions count the residues as written; N and C are the ends. Square brackets hold non-standard residues; d marks the D form. Ends that are not written are not given here. 1Nal = N[C@@H](Cc1cccc2ccccc12)C(=O)O; Sar = CNCC(=O)O", "data": [{"binder": "Ac-GGLYACHMGPIT[1Nal]VCQPLR[Sar] (disulfide 6-15; also: homodimer: C-termini joined to alpha- and epsilon-amino groups of a lysine linker carrying spacer and PEG, not shown)", "note": "[Peptide III (SEQ ID NO: 3)]", "values": [{"measurement": "Proliferation EC50", "setting": "human EPO-R [1]", "value": 72000, "unit": "pM"}, {"measurement": "Reporter EC50 (pM)", "setting": "[2]", "value": 150, "unit": "pM"}]}, {"binder": "Ac-GGLYACHMGPIT[1Nal]VCQPLR[Sar]K (disulfide 6-15; not fully specified (residue 21); printed as (AcG)GLYACHMGPIT(1-nal)VCQPLR(MeG)K; also: homodimer, Lys21 epsilon-N joined to branched tertiary amide linker carrying PEG, also called Peptide 1)", "note": "[Peptide I (SEQ ID NO: 2)]", "values": [{"measurement": "IC50", "setting": "[3]", "value": 111, "unit": "pM"}, {"measurement": "Proliferation EC50 (pM)", "setting": "human EPO-R [4]", "value": 165, "unit": "pM"}, {"measurement": "Reporter EC50 (pM)", "setting": "[5]", "value": 195, "unit": "pM"}]}, {"binder": "Ac-GGLYACHMGPIT[1Nal]VCQPLR[Sar] (disulfide 6-15; also: homodimer: C-termini joined to alpha- and epsilon-amino groups of a lysine linker carrying spacer and PEG, not shown)", "note": "[Peptide II (SEQ ID NO: 3)]", "values": [{"measurement": "IC50", "setting": "[6]", "value": 110, "unit": "pM"}]}]}
